For assay [1], the target named is human Sirpα-V1 recombinant protein (human) (UniProt P78324). Put plainly: ELISA, subclone supernatant. A general note: ELISA stands for enzyme-linked immunosorbent assay.
Assay [2] addresses human Sirpα-V2-his (human). Put plainly: ELISA, subclone supernatant.
The target of assay [3] is human Sirpα-V1-his (human) (UniProt P78324). Put plainly: blocking ELISA: hSirpα-V1-his, hCD47-Fc (dimer).
Assay [4] has as its target human Sirpα-V1-hFc (human) (UniProt P78324). Put plainly: blocking ELISA: hSirpα-V1-hFc (dimer), hCD47-his.
For assay [5], the target named is Cyno Sirpα L932 (cynomolgus). Put plainly: ELISA.
Assay [6] addresses Cyno Sirpα L933 (cynomolgus). Put plainly: ELISA.
The target in assay [7] is Cyno Sirpα L936 (cynomolgus). Put plainly: ELISA.
Assay [8] deals with Cyno Sirpα L937 (cynomolgus). Put plainly: ELISA.
The target of assay [9] is human Sirpα-V1 recombinant protein (human) (UniProt P78324). Put plainly: ELISA.
For assay [10], the target named is human Sirpα-V2-his (human). Put plainly: ELISA.
Assay [11] concerns the target human Sirpα-V1 recombinant protein (human) (UniProt P78324). Put plainly: ELISA. This is another data set of the same source.
In assay [12] the target is human Sirpα-V1-hFc (human) (UniProt P78324). As to the kind of experiment: blocking ELISA: hSirpα (dimer) to hCD47.
In assay [13] the target is human Sirpα-V1-his (human) (UniProt P78324). As to the kind of experiment: blocking ELISA: hSirpα to hCD47 (dimer).
For assay [14], the target named is human Sirpα-V1-hFc (human) (UniProt P78324). Put plainly: blocking ELISA: hSirpα (dimer) to hCD47. This is another data set of the same source.
Assay [15] deals with human Sirpα-V1-his (human) (UniProt P78324). Put plainly: blocking ELISA: hSirpα to hCD47 (dimer). The source holds these as a separate data set.

Results on eight molecules are retold here after patent US12577303B2.

Read-outs that look alike come from different tables or passages of the source.

Sequence of Cyno Sirpα L932 (cynomolgus) (chain, as listed by the source): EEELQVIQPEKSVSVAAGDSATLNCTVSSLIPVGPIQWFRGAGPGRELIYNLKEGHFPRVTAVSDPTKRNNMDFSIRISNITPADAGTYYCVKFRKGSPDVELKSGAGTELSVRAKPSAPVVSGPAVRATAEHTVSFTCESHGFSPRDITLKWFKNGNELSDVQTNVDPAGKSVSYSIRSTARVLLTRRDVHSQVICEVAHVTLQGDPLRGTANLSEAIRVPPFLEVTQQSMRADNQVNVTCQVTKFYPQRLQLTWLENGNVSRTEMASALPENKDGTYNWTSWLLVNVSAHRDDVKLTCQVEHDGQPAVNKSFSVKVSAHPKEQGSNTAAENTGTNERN
Sequence of Cyno Sirpα L933 (cynomolgus) (chain, as listed by the source): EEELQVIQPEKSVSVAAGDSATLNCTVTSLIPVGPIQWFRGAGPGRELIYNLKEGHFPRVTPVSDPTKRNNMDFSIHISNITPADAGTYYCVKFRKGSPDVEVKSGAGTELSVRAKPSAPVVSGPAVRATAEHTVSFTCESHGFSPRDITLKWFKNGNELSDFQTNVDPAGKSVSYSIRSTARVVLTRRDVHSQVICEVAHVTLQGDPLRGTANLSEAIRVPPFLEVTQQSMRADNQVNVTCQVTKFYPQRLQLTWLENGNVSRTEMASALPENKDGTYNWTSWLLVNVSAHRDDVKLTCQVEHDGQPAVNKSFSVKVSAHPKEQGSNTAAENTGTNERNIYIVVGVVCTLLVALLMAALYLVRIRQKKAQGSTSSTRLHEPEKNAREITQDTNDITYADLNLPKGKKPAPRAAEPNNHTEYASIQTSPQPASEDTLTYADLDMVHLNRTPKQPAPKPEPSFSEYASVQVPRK
Sequence of Cyno Sirpα L937 (cynomolgus) (chain, as listed by the source): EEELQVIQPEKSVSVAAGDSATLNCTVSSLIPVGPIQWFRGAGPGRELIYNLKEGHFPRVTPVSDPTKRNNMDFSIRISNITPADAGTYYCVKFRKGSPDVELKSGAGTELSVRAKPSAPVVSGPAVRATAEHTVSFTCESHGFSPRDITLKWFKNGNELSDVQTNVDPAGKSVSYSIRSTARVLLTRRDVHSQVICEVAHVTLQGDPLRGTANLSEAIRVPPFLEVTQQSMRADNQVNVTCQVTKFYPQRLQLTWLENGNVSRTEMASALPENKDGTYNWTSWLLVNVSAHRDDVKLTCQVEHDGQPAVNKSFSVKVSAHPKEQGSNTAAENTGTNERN
Sequence of Cyno Sirpα L936 (cynomolgus) (chain, as listed by the source): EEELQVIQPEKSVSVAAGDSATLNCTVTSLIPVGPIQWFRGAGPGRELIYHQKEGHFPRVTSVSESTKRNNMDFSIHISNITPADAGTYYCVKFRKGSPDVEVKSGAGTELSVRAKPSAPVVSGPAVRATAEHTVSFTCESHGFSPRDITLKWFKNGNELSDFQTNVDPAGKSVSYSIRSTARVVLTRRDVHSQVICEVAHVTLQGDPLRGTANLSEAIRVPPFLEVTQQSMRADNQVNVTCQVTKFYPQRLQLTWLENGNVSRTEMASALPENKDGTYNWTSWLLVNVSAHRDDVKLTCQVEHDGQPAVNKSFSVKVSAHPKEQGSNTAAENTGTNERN

B1: 14H6E5B5C8G2 (antibody, V domains shown)
VH: QVHLQQPGAELVKPGASVKLSCKASGYNFNIYWINWVKQRPGQGLEWIGNIYPSSISTNYNEKFKTKATLTVDKSSNTVYMQFSSLTSEDSAVYYCARSEGTYYGGRYEGDWFGYWGQGTLVTVSA
VL: DIQMTQTTSSLSASLGDRVTISCRASQDIRNYLNWYQQKPDGTVKLLIYFTSTLHSGVPSRFSGSGSGTDYSLTISNLEQEDIATYFCQQGNTLPWTFGGGTKLEIK
Turning to B1, the ELISA value, activity of binding was 1.27 in [1] and 1.25 in assay [2]. Besides, the ELISA value of the blocking assay in assay [3] stood at 0.42; in [4] it was 0.069.

B2: human-murine chimeric antibody mab14c (antibody, V domains shown)
VH: QVHLQQPGAELVKPGASVKLSCKASGYNFNIYWINWVKQRPGQGLEWIGNIYPSSISTNYNEKFKTKATLTVDKSSNTVYMQFSSLTSEDSAVYYCARSEGTYYGGRYEGDWFGYWGQGTLVTVSA
VL: DIQMTQTTSSLSASLGDRVTISCRASQDIRNYLNWYQQKPDGTVKLLIYFTSTLHSGVPSRFSGSGSGTDYSLTISNLEQEDIATYFCQQGNTLPWTFGGGTKLEIKR
For B2, the EC50 (commonly the midpoint of the concentration-response curve) worked out at 0.1 nM in assay [5]; 0.14 nM in assay [6]; 0.099 nM in assay [7]; 0.099 nM in [8]; 0.16 nM in assay [9]; 0.14 nM in assay [10]. The EC50 in assay [11] stood at 0.093 nM. Besides, the IC50 (as a rule, the midpoint of a concentration-inhibition curve) in assay [12] was found to be 5.7 nM; in assay [13], 5.54 nM; in [14], 5.48 nM; in assay [15] it was 9.98 nM.

B3: mab14-h2 (antibody, V domains shown)
VH: QVQLVQSGAEVKKPGASVKVSCKASGYNFNIYWINWVKQAPGQGLEWIGNIYPSSISTNYNEKFKTKATLTVDKSTSTVYMEFSSLRSEDTAVYYCARSEGTYYGGRYEGDWFGYWGQGTLVTVSS
VL: DIQMTQSPSSLSASVGDRVTITCRASQDIRNYLNWYQQKPGGTVKLLIYFTSTLHSGVPSRFSGSGSGTDYTLTISSLQPEDFATYYCQQGNTLPWTFGGGTKVEIKR
With B3, in assay [11], the EC50 came to 0.073 nM.

B4: mab14-h3 (antibody, V domains shown)
VH: QVQLVQSGAEVKKPGASVKVSCKASGYNFNIYWINWVRQAPGQGLEWMGNIYPSSISTNYNEKFKTRATLTVDTSTSTVYMELSSLRSEDTAVYYCARSEGTYYGGRYEGDWFGYWGQGTLVTVSS
VL: DIQMTQSPSSLSASVGDRVTITCRASQDIRNYLNWYQQKPGGTVKLLIYFTSTLHSGVPSRFSGSGSGTDYTLTISSLQPEDFATYYCQQGNTLPWTFGGGTKVEIKR
Consider B4, for which the concentration for a half-maximal effect (EC50) in assay [11] is 0.103 nM.

B5: mab14-h4 (antibody, V domains shown)
VH: QVQLVQSGAEVKKPGASVKVSCKASGYNFNIYWINWVRQAPGQGLEWIGNIYPSSISTNYNEKFKTRATLTVDTSTSTVYMELSSLRSEDTAVYYCARSEGTYYGGRYEGDWFGYWGQGTLVTVSS
VL: DIQMTQSPSSLSASVGDRVTITCRASQDIRNYLNWYQQKPGGTVKLLIYFTSTLHSGVPSRFSGSGSGTDYTLTISSLQPEDFATYYCQQGNTLPWTFGGGTKVEIKR
Take B5: the concentration giving a half-maximal response (EC50) in [11] is 0.088 nM.

B6: mab14-h7 (antibody, V domains shown)
VH: QVQLVQSGAEVKKPGASVKVSCKASGYNFNIYWINWVKQAPGQGLEWIGNIYPSSISTNYNEKFKTKATLTVDTSTSTVYMELSSLRSEDTAVYYCARSEGTYYGGRYEGDWFGYWGQGTLVTVSS
VL: DIQMTQSPSSLSASVGDRVTITCRASQDIRNYLNWYQQKPGGTVKLLIYFTSTLHSGVPSRFSGSGSGTDYTLTISSLQPEDFATYYCQQGNTLPWTFGGGTKVEIKR
In the case of B6, the EC50 in assay [11] was 0.081 nM.

B7: mab14-h5 (antibody, V domains shown)
VH: QVQLVQSGAEVKKPGASVKVSCKASGYNFNIYWINWVRQAPGQGLEWIGNIYPSSISTNYNEKFKTRATLTVDKSTSTVYMELSSLRSEDTAVYYCARSEGTYYGGRYEGDWFGYWGQGTLVTVSS
VL: DIQMTQSPSSLSASVGDRVTITCRASQDIRNYLNWYQQKPGGTVKLLIYFTSTLHSGVPSRFSGSGSGTDYTLTISSLQPEDFATYYCQQGNTLPWTFGGGTKVEIKR
In the case of B7, the EC50 in assay [11] is 0.061 nM. In addition, the IC50 came out at 8.99 nM in assay [14] and 8.47 nM in [15].

B8: mab14-h6 (antibody, V domains shown)
VH: QVQLVQSGAEVKKPGASVKVSCKASGYNFNIYWINWVKQAPGQGLEWIGNIYPSSISTNYNEKFKTRATLTVDTSTSTVYMELSSLRSEDTAVYYCARSEGTYYGGRYEGDWFGYWGQGTLVTVSS
VL: DIQMTQSPSSLSASVGDRVTITCRASQDIRNYLNWYQQKPGGTVKLLIYFTSTLHSGVPSRFSGSGSGTDYTLTISSLQPEDFATYYCQQGNTLPWTFGGGTKVEIKR
B8: the EC50 in [11] stood at 0.095 nM.
